Data on 33 molecules can be found in PMC10786891, “Massively parallel profiling of RNA-targeting CRISPR-Cas13d”.

One may read the Kd as the constant that tells how readily two partners part at equilibrium. Low values mean tighter binding, high ones weaker binding.

Numbering of substitutions follows the chain as printed. Numbers in names are those of the source.

To fix the notation:
T1: EsCas13d, nuclease-dead (Eubacterium siraeum, UniProt B0MS50, R295A;H300A;R849A;H854A)
T1 sequence: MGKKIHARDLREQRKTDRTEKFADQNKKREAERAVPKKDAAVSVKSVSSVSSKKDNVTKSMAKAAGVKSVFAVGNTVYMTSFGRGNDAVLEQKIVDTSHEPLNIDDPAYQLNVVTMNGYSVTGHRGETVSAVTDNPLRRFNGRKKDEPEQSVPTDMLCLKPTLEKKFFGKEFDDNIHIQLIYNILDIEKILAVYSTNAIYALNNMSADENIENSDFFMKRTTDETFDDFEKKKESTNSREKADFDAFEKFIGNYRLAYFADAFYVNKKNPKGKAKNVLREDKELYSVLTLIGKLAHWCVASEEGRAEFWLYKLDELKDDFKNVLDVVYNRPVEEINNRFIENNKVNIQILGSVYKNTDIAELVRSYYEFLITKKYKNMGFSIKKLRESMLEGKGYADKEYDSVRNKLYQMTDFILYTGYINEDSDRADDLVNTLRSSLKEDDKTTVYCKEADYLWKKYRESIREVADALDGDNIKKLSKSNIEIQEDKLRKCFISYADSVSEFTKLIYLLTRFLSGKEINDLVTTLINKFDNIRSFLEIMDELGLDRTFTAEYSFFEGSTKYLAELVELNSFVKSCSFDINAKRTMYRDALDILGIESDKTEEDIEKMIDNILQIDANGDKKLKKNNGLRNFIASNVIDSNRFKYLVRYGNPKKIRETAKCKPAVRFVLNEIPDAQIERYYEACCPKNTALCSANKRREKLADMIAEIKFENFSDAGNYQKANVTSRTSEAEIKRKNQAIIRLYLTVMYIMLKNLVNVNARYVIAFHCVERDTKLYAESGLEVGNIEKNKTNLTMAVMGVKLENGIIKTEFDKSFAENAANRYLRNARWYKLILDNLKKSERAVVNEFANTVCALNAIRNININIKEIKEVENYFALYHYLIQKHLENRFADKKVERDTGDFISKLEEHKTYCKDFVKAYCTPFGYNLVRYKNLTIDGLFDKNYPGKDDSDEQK

B1: target 1 U8A (mixed)
RNA 1: CACCCGUGCAAAAAUGCAGGGGUCUAAAACUGAGCGGAUAACCUCUCUAUGG
RNA 2: GGGAAUGGAUCCACAUCUACGAAUUCGUACCAUAGAGAGGUUAACCGCUCACCGAGAUCGGAAGAGCACACGU
B2: target 1 insA 3' of 15,insG 3' of 11 (mixed)
RNA 1: B1 RNA 1
RNA 2: GGGAAUGGAUCCACAUCUACGAAUUCGUACCAUAGAGAAGGUGUAUCCGCUCACCGAGAUCGGAAGAGCACACGU
B3: target 1 U3G,G17A (mixed)
RNA 1: B1 RNA 1
RNA 2: B1 RNA 2 with G35A, A44U, U49G
B4: target 1 G15C,A16G (mixed)
RNA 1: B1 RNA 1
RNA 2: B1 RNA 2 with A36G, G37C, A44U
B5: target 1 A1C,U8A (mixed)
RNA 1: B1 RNA 1
RNA 2: B1 RNA 2 with A51C
B6: target 1 G5C,A14C (mixed)
RNA 1: B1 RNA 1
RNA 2: B1 RNA 2 with A38C, A44U, G47C
B7: target 1 U3C,U8G (mixed)
RNA 1: B1 RNA 1
RNA 2: B1 RNA 2 with A44G, U49C
B8: target 1 insU 3' of 13,insC 3' of 11 (mixed)
RNA 1: B1 RNA 1
RNA 2: B2 RNA 2 with A39G, G40U, G43C
B9: target 1 insG 3' of 19,insG 3' of 9 (mixed)
RNA 1: B1 RNA 1
RNA 2: B2 RNA 2 with A34G, G35A, A36G, G37A, A38G, G43U, U44A, A45G
B10: target 1 C2A,U3G (mixed)
RNA 1: B1 RNA 1
RNA 2: B1 RNA 2 with A44U, U49G, C50A
B11: target 1 U3A,C7A (mixed)
RNA 1: B1 RNA 1
RNA 2: B1 RNA 2 with A44U, C45A, U49A
B12: target 1 C7U,U11C (mixed)
RNA 1: B1 RNA 1
RNA 2: B1 RNA 2 with U41C, A44U, C45U
B13: target 1 U8C,A20U (mixed)
RNA 1: B1 RNA 1
RNA 2: B1 RNA 2 with A32U, A44C
B14: target 1 G12U,C21U (mixed)
RNA 1: B1 RNA 1
RNA 2: B1 RNA 2 with C31U, G40U, A44U
B15: target 1 insU 3' of 15,insG 3' of 7 (mixed)
RNA 1: B1 RNA 1
RNA 2: B2 RNA 2 with A38U, G43U, U44A, A45U, U46C, C47G
B16: target 1 U8G,U10G (mixed)
RNA 1: B1 RNA 1
RNA 2: B1 RNA 2 with U42G, A44G
B17: target 1 insC 3' of 19,insU 3' of 15 (mixed)
RNA 1: B1 RNA 1
RNA 2: B2 RNA 2 with A34C, G35A, A36G, G37A, A38G, A39U, G40A, U42G, G43U
B18: target 1 G5U,U11A (mixed)
RNA 1: B1 RNA 1
RNA 2: B1 RNA 2 with U41A, A44U, G47U
B19: target 1 C6A,A18G (mixed)
RNA 1: B1 RNA 1
RNA 2: B1 RNA 2 with A34G, A44U, C46A
B20: target 1 insC 3' of 17,insG 3' of 1 (mixed)
RNA 1: B1 RNA 1
RNA 2: GGGAAUGGAUCCACAUCUACGAAUUCGUACCAUAGCAGAGGUUAUCCGCUCAGCCGAGAUCGGAAGAGCACACGU
B21: target 1 U3C,G5A (mixed)
RNA 1: B1 RNA 1
RNA 2: B1 RNA 2 with A44U, G47A, U49C
B22: target 3 insG 3' of 5,insU 3' of 5 (mixed)
RNA 1: CACCCGUGCAAAAUUGCAGGGGUCUAAAACGACCUGAAUAUUUCAGAUCAAA
RNA 2: GGGAAUGGAUCCACAUCUACGAAUUCGUUUUUGAUCUGAAAUAUUCAGUGGUCUGCAGAUCGGAAGAGCACACGU
B23: target 3 insA 3' of 6,insA 3' of 4 (mixed)
RNA 1: B22 RNA 1
RNA 2: B22 RNA 2 with G48A, U49G, G50A
B24: target 3 insG 3' of 8,insU 3' of 6 (mixed)
RNA 1: B22 RNA 1
RNA 2: B22 RNA 2 with U45G, C46U, A47C, G48U, U49A
B25: target 3 insU 3' of 9,insC 3' of 7 (mixed)
RNA 1: B22 RNA 1
RNA 2: B22 RNA 2 with C46U, A47C, G48C, U49A
B26: target 3 insA 3' of 4,insC 3' of 4 (mixed)
RNA 1: B22 RNA 1
RNA 2: B22 RNA 2 with U49A, G50C
B27: target 3 insG 3' of 22,insU 3' of 22 (mixed)
RNA 1: B22 RNA 1
RNA 2: GGGAAUGGAUCCACAUCUACGAAUUCGUUUGUUUGAUCUGAAAUAUUCAGGUCUGCAGAUCGGAAGAGCACACGU
B28: target 3 insG 3' of 6,insC 3' of 4 (mixed)
RNA 1: B22 RNA 1
RNA 2: B22 RNA 2 with A47G, G48A, U49G, G50C
B29: target 3 insA 3' of 10,insG 3' of 2 (mixed)
RNA 1: B22 RNA 1
RNA 2: B22 RNA 2 with U44A, C46U, A47C, G48A, U49G, G51U, U52G
B30: target 3 C6G,A11C (mixed)
RNA 1: B22 RNA 1
RNA 2: GGGAAUGGAUCCACAUCUACGAAUUCGUUUUUGAUCUGAACUAUUGAGGUCUGCAGAUCGGAAGAGCACACGU
B31: target 3 insG 3' of 22,insG 3' of 6 (mixed)
RNA 1: B22 RNA 1
RNA 2: GGGAAUGGAUCCACAUCUACGAAUUCGUUUGUUGAUCUGAAAUAUUCGAGGUCUGCAGAUCGGAAGAGCACACGU
B32: target 3 insG 3' of 7,insC 3' of 4 (mixed)
RNA 1: B22 RNA 1
RNA 2: B22 RNA 2 with C46G, A47C, G48A, U49G, G50C
B33: target 3 insC 3' of 21,insG 3' of 6 (mixed)
RNA 1: B22 RNA 1
RNA 2: B31 RNA 2 with G31U, U32C

This data set has as its target T1, EsCas13d, nuclease-dead. Nature of the data set: crRNA (strand 1, pre-loaded); Mg2+; 40 mM Tris-HCl pH 7.5, 150 mM NaCl, 6 mM MgCl2, 1 mM DTT, 0.1% Tween-20, 0.2 mg/ml BSA; 25 C; 10 min per concentration, then washed. Particulars: tags: His6-TwinStrep-SUMO cleaved; N-terminal SNAP kept (SNAP-Surface 488); label: 3' end held by stalled T7 RNA polymerase.
With B1, the affinity, expressed as Kd, was 0.0222 ± 0.0017 µM.

B2 registered a Kd of 0.024 ± 0.004 µM.

Molecule B3 showed a Kd of 0.037 ± 0.004 µM.

For the molecule B4, the Kd was found to be 0.071 ± 0.011 µM.

B5: the Kd was 0.0255 ± 0.0018 µM.

B6 returned an equilibrium dissociation constant (Kd) of 0.0145 ± 0.0015 µM.

B7 showed a Kd of 0.0186 ± 0.0012 µM.

Molecule B8 registered a Kd of 0.029 ± 0.007 µM.

For B9, the Kd was found to be 0.044 ± 0.005 µM.

B10 showed a Kd of 0.0086 ± 0.0007 µM.

Regarding B11, the affinity, expressed as Kd, was 0.007 ± 0.0004 µM.

In the case of B12, binding was characterised by a dissociation constant (Kd) of 0.0087 ± 0.0004 µM.

Take B13: the Kd was 0.08 ± 0.008 µM.

The molecule B14 registered a Kd of 0.0074 ± 0.0005 µM.

B15 showed a Kd of 0.0107 ± 0.0004 µM.

For B16, the Kd was 0.02 ± 0.0011 µM.

B17 registered a Kd of 0.062 ± 0.026 µM.

B18 displayed a dissociation constant (Kd) of about 0.06 µM.

On to B19, for which the Kd came out at 0.098 ± 0.02 µM.

Take B20: the Kd was 0.044 ± 0.016 µM.

In the case of B21, the Kd amounted to 0.067 ± 0.022 µM.

In the case of B22, binding was characterised by a dissociation constant (Kd) of 0.0181 ± 0.00295 µM.

Turning to B23, the Kd is 0.0109 ± 0.0009 µM.

The molecule B24 came in with a Kd of 0.0283 ± 0.0033 µM.

Regarding B25, the Kd worked out at 0.1 ± 0.021 µM.

The molecule B26 registered a Kd of about 0.11 µM.

Regarding B27, binding was put at a Kd of 0.028 ± 0.0045 µM.

The molecule B28 came in with a Kd of 0.0132 ± 0.0015 µM.

B29 came in with a dissociation constant (Kd) of 0.042 ± 0.0065 µM.

In turn, B30 had a Kd of 0.0301 ± 0.00465 µM.

On to B31, for which the Kd was 0.09 ± 0.0415 µM.

In turn, B32 displayed a Kd of 0.064 ± 0.008 µM.

On to B33, for which the Kd was 0.1 ± 0.04 µM.
